# PMC10051649, “Suramin Disturbs the Association of the N-Terminal Domain of SARS-CoV-2 Nucleocapsid Protein with RNA”
# B1: ssRNA-16 (ssRNA)
# RNA: AUAUGGAAGAGCCCUA
# Molecular target: SARS-CoV-2 nucleocapsid N-terminal domain (N-NTD) (SARS-CoV-2, UniProt P0DTC9 44-180)
# Assay: BLI
# Details: protein: recombinant; tags: 6xHis-SUMO removed by SUMO protease; biotinylated for BLI; 15N-labeled for NMR; single strand
binder,measurement,value
B1,Kd,8.37 µM
